Experimental findings from patent US20080124340A1 are described below.

Test [1] deals with T1, human erythropoietin receptor (huEpoR), cell surface expressed (human) (UniProt P19235).
T1 sequence (looked up): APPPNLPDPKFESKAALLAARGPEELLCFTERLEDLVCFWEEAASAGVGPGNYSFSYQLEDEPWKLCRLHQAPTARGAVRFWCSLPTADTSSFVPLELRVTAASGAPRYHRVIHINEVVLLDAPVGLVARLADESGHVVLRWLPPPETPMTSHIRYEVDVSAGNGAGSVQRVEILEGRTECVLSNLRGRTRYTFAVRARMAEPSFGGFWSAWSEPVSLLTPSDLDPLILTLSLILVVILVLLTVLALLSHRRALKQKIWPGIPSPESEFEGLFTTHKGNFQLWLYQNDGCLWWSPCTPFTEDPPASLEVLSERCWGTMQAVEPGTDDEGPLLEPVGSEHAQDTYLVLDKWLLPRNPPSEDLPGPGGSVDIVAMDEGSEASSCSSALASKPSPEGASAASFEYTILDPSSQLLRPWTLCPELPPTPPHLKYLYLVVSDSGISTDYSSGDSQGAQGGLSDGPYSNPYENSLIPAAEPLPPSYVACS
Description: cell-based or functional assay.

Test [2] concerns the target cynomolgus monkey EpoR (cynoEpoR) (cynomolgus monkey). Briefly: SPR, Biacore T100; scFv-Fc captured by anti-human IgG Fc on CM5 chip, EpoR as analyte. For orientation: Surface plasmon resonance follows binding to a sensor surface in real time, without labels.
The target of test [3] is T2, soluble human erythropoietin receptor protein (huEpoR) (human) (UniProt P19235).
T2 sequence (looked up): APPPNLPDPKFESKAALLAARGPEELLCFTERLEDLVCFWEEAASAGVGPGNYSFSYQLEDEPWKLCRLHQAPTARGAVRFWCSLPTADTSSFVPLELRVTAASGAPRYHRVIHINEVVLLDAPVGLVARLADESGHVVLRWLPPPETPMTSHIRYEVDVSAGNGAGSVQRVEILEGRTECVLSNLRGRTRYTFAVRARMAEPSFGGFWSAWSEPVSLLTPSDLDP
The test is described as above.

B1: clone 352 scFv-Fc protein (Fc fusion, part only; not given: scFv linker and IgG1 Fc, not shown: a dimerising Fc or GST)
scFv, part: EVQLVQSGGGLVQPGGSLRLSCAASGFRFSSYWMTWVRQAPGKGLEWVANIKPDGSEKYYVDSVKGRFTMSRDNAKNSVYLQMNSLRAEDTAVYYCARVSRGGSFSDWGQGTLVTVSSQSALTQPASVSGSPGQSITIPCTGTSSDIGTYDYVSWYQQHPGKVPKVIIYEVTNRPSGVSNRFSGSKSGNTASLTISGLQADDEADYYCNSFTKNNTWVFGGGTKLTVL
On to B1, for which the Average EC50, UT-7-luciferase assay in test [1] amounted to 2.16 nM.

B2: clone 16 scFv-Fc protein (Fc fusion, part only; not given: scFv linker and IgG1 Fc, not shown: a dimerising Fc or GST)
scFv, part: QVQLQESGPGLVKPSETLSLTCTVSGGYINNYYWSWIRQPPGKGLEWIGYIHYSGSTYYNPSLKSRVTISEDTSKNQFSLKLSSATAADTAVYYCARVGYYYDSSGYNLAWYFDLWGRGTLVTVSASSELTQDPAVSVALGQTVRITCQGDNLRSYSATWYQQKPGQAPVLVLFGENNRPSGIPDRFSGSKSGDTAVLTITGTQTQDEADYYCTSRVNSGNHLGVFGPGTQLTVL
The term Kd denotes the equilibrium constant for the complex coming apart. For orientation: koff means a measure of how fast the partners let go of each other. Broadly, the kon is the second-order rate constant of association. In test [2], B2 showed a Kd of 4360 nM, a koff of 0.283 s⁻¹ and a kon of 65000 M⁻¹ s⁻¹. In addition, in test [3], the dissociation constant Kd was found to be 2190 nM, the koff turned out to be 0.142 s⁻¹ and the association rate constant (kon) turned out to be 65000 M⁻¹ s⁻¹.

B3: clone 13 scFv-Fc protein (Fc fusion, part only; not given: scFv linker and IgG1 Fc, not shown: a dimerising Fc or GST)
scFv, part: QVQLQQSGGGVVQPGRSLRLSCAASGFTFSDYAMHWVRQAPGKGLEWVAVISNHGKSTYYADSVKGRFTISRDNSKHMLYLQMNSLRADDTALYYCARDIALAGDYWGQGTLVTVSADIQMTQSPSSLSASVGDRVTITCRASQSISSYLNWYQQLPGKVPKLLIYGASKLQSGVPSRFSGSGSGTDFTLTISSLQPEDFATYYCLQDYNYPLTFGPGTRLEIK
In test [2], B3 gave a Kd of 920 nM, a koff of 0.0597 s⁻¹ and a kon of 65000 M⁻¹ s⁻¹. Moreover, in test [3], the dissociation constant Kd came to 1040 nM, the off-rate (koff) was 0.0568 s⁻¹ and the kon was 55000 M⁻¹ s⁻¹. In addition, in test [1], the Average EC50, UT-7-luciferase assay stood at 4.03 nM.

B4: clone 307 scFv-Fc protein (Fc fusion, part only; not given: scFv linker and IgG1 Fc, not shown: a dimerising Fc or GST)
scFv, part: EVQLVESGGGLVQPGGSLRLSCAVSGFTFSKYWMTWVRQAPGKGLEWVANIKPDGSEKYYVESVKGRFTISRDNAKNSVYLQMNSVRAEDTAVYYCARVSRGGSFSDWGQGTMVTVSSQSVLTQPPSASGSPGQSVTISCTGTSSDVGGYNYVSWYQQHPDKAPRLMIYDVNKRPSGVPDRFSGSKSGNTASLTVSGLQAEDEAHYYCNSYAGSNNWVFGGGTQLTVL
With B4, in test [2], the Kd is 1210 nM, the koff turned out to be 0.361 s⁻¹ and the kon came to 299000 M⁻¹ s⁻¹. In test [3], this molecule came in with a Kd of 108 nM, an off-rate (koff) of 0.246 s⁻¹ and a kon of 2.28e+06 M⁻¹ s⁻¹. Also, the Average EC50, UT-7-luciferase assay in test [1] is 0.381 nM.

B5: clone 295 scFv-Fc protein (Fc fusion, part only; not given: scFv linker and IgG1 Fc, not shown: a dimerising Fc or GST)
scFv, part: EVQLVESGGGLVQPGGSLRLSCAASGFTFSSYAMSWVRQAPGKGLEWVSGISGSGSSEGGTYYADSVKGRFTLSRDNSKNTLYLQMNSLRAEDTALYYCVKDRPSRYSFGYYFDYWGRGTLVTVSSLPVLTQPPSVSVSPGQTASIACSGNKLGDKYVSWYQQKPGQSPLLVIYQDTKRPSGIPERFSGSNSGNTATLTISGTQAMDEADYYCQAWDSSTDVVFGGGTKLTVL
Regarding B5, in test [2], the Kd came out at 539 nM, the koff was found to be 0.0221 s⁻¹ and the kon was determined as 41000 M⁻¹ s⁻¹. In test [3], this molecule showed a Kd of 163 nM, a dissociation rate constant (koff) of 0.00296 s⁻¹ and an on-rate (kon) of 18000 M⁻¹ s⁻¹. Moreover, in test [1], the Average EC50, UT-7-luciferase assay amounted to 0.607 nM.

B6: clone 378 scFv-Fc protein (Fc fusion, part only; not given: scFv linker and IgG1 Fc, not shown: a dimerising Fc or GST)
scFv, part: QVQLVESGGGLVQPGRSLILSCAVSGFTFSKYWMTWVRQAPGKGLEWVANIKPDGSEKYYVESVKGRFTISRDNAKNSVYLQMNSVRAEDTAVYYCARVSRGGSFSDWSQGTLVTVSSQSALTQPPSASGSPGQSVTISCTGTSGDVGAYNYVSWYQQYPGKAPKLMIYEVSKRPSGVPDRFSGSKSGNTASLTVSGLQAEDEADYYCNSYRGSNGPWVFGGGTKVTVL
The molecule B6 registered an Average EC50, UT-7-luciferase assay in test [1] of 0.055 nM.

B7: clone 323 scFv-Fc protein (Fc fusion, part only; not given: scFv linker and IgG1 Fc, not shown: a dimerising Fc or GST)
scFv, part: QVQLVESGGGLVQPGGSLRLSCAVSGFTFSKYWMTWVRQAPGKGLEWVANIKPDGSEKYYVESVKGRFTISRDNAKNSVYLQMNSVRAEDTAVYYCARVSRGGSFSDWGRGTMVTVSSQSALTQPASVSGSPGQSITISCTGTSSDVGSYNLVSWYQQHPGKVPKLIIYEVSNRPSGVSHRFSGSKSGNTASLTISGLQAEDEADYYCSSLTSSGTWVFGGGTKVTVL
In test [1], B7 displayed an Average EC50, UT-7-luciferase assay of 0.613 nM.

B8: clone 201 scFv-Fc protein (Fc fusion, part only; not given: scFv linker and IgG1 Fc, not shown: a dimerising Fc or GST)
scFv, part: QVQLQESGSGLARPSQTLSLTCAVSGGSISSSAFSWNWIRQPPGKGLEWIGYIYHTGITDYNPSLKSRVTISVDRSKNQFSLNVNSVTAADTAVYYCARGHGSDPAWFDPWGKGTLVTVSSQSVLTQPPSVSVSPGQTASITCSGDKLGDKYASWYQQRPGQSPVLVIYRDTKRPSGIPERFSGSNSGNTATLTISGTQAVDEADYYCQAWDSTTSLVFGGGTKLTVL
In test [2], B8 returned a Kd of 18600 nM, a koff of 0.0508 s⁻¹ and a kon of 2700 M⁻¹ s⁻¹. For the same molecule, in test [3], the Kd was determined as 4030 nM, the koff was 0.0187 s⁻¹ and the kon was 4600 M⁻¹ s⁻¹. This molecule also came in with an Average EC50, UT-7-luciferase assay in test [1] of 8.28 nM.

B9: clone 276 scFv-Fc protein (Fc fusion, part only; not given: scFv linker and IgG1 Fc, not shown: a dimerising Fc or GST)
scFv, part: EVQLVQSGGGLVQPGGSLRLSCAASGFTFSSYWMSWVRQAPGKGLEWVANIKPDGSEKYYVDSVKGRFTISRDNAKNSVYLQMNSLRAEDTAVYYCARVSRGGSYSDWGRGTMVTVSSQSVLTQPPSASGSPGQSVTISCTGTSSDVGGFNYVSWYQKYPGKAPKLVIYEVSKRPSGVPDRFSGSKSGNTASLTVSGLQAEDEADYYCSSWAPGKNLFGGGTKLTVL
Consider B9, for which the Average EC50, UT-7-luciferase assay in test [1] was 0.322 nM.

B10: clone 319 scFv-Fc protein (Fc fusion, part only; not given: Linker and IgG1 Fc, not shown: another chain or arm of the molecule; a dimerising Fc or GST; small tags and cut ends)
VH: QVQLVQSGAEIKKPGASVKVSCKTFGSPFSTNDIHWVRQAPGQGLEWMGIIDTSGAMTRYAQKFQGRVTVTRETSTSTVYMELSSLKSEDTAVYYCAREGCTNGVCYDNGFDIWGQGTLVTVSS
VL: DIQMTQSPSTLSASIGDRVTITCRASEGIYHWLAWYQQKPGKAPKLLIYKASSLASGAPSRFSGSGSGTDFTLTISSLQPDDFATYYCQQYSNYPLTFGGGTKLEIK
In test [2], B10 returned a Kd of 121 nM, an off-rate constant (koff) of 0.0258 s⁻¹ and a kon of 213000 M⁻¹ s⁻¹. In test [3], the Kd worked out at 212 nM, the off-rate constant (koff) was determined as 0.0335 s⁻¹ and the kon was found to be 158000 M⁻¹ s⁻¹. The molecule also returned an Average EC50, UT-7-luciferase assay in test [1] of 5.87 nM.

B11: clone 15 scFv-Fc protein (Fc fusion, part only; not given: scFv linker and IgG1 Fc, not shown: a dimerising Fc or GST)
scFv, part: QVQLQESGPGLVRPSGTLSLTCAVSGGSIGSSNWWSWVRQAPGKGLEWIGEISQSGSTNYNPSLKGRVTISLDRSRNQLSLKLSSVTAADTAVYYCARQLRSIDAFDIWGPGTTVTVSASYVLTQPPSVSVSPGLTATITCSGDKLGDKYASWYQQKPGQSPVLVIYQDRKRPSGIPERFSGSNSGNTATLTISGTQAVDEADYYCQAWDSDTSYVFGTGTQLTVL
In test [2], B11 had a Kd of 3130 nM, a koff of 0.115 s⁻¹ and an on-rate (kon) of 37000 M⁻¹ s⁻¹. In test [3], this molecule yielded a Kd of 1950 nM, a koff of 0.119 s⁻¹ and a kon of 61000 M⁻¹ s⁻¹. The Average EC50, UT-7-luciferase assay in test [1] is 2.8 nM.
